The supplement of paper PMC10567573

B1: PKD2L1 (parent)
chain: SGPEAARAGGWVSGEEFYMLTRRV
B2: KLHL13 (parent)
chain: TGEFLKLPFERLAFVLSSNSLKHC
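Note: lentivirally expressed fusions sorted by FACS into six bins by GFP to DsRed ratio, PSI derived from sequencing read proportions per bin multiplied by bin number.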

Variants of: B1
Assay: protein stability index of a GFP-peptide fusion (GPS, HEK-293T) (PSI 1-6); higher = more stable
Details: c terminus: a fixed tail appended
Y18I showed a protein stability index of 2.32.
Work on Y18E yielded a protein stability index of 3.77.
In the case of Y18Q, the protein stability index is reported as 3.03.
With Y18K the protein stability index was 4.08.
In the case of Y18W, the protein stability index is reported as 2.69.
Work on Y18R yielded a protein stability index of 3.55.
Variant Y18G has a protein stability index of 3.44.
Variant Y18C has a protein stability index of 3.05.
Y18T showed a protein stability index of 3.52.
Work on Y18M yielded a protein stability index of 2.84.
With L20D the protein stability index was 4.19.
L20V showed a protein stability index of 2.25.
In the case of L20W, the protein stability index is reported as 1.73.
Work on L20K yielded a protein stability index of 3.46.
With L20M the protein stability index was 2.93.
L20P showed a protein stability index of 3.94.
Work on L20I yielded a protein stability index of 2.01.
L20G showed a protein stability index of 4.08.
For L20T, the protein stability index was 2.81.
With L20R the protein stability index was 3.79.
For L20F, the protein stability index was 1.81.
L20A gave a protein stability index of 3.16.
L20S showed a protein stability index of 3.61.
Variant L20E has a protein stability index of 3.64.
For L20Y, the protein stability index was 2.74.
In the case of L20H, the protein stability index is reported as 2.69.
Work on L20N yielded a protein stability index of 3.79.
In the case of L20C, the protein stability index is reported as 2.97.
Variant L20Q has a protein stability index of 3.1.
Variant T21P has a protein stability index of 3.33.
In the case of T21G, the protein stability index is reported as 3.08.
Variant T21H has a protein stability index of 2.27.
T21R showed a protein stability index of 3.1.
Work on T21F yielded a protein stability index of 1.5.
T21I gave a protein stability index of 1.75.
Work on T21S yielded a protein stability index of 2.62.
In the case of T21K, the protein stability index is reported as 3.71.
In the case of T21E, the protein stability index is reported as 3.29.
T21Y showed a protein stability index of 1.6.
For T21W, the protein stability index was 2.12.
T21L gave a protein stability index of 2.62.
T21N showed a protein stability index of 2.9.
T21M gave a protein stability index of 2.67.
In the case of T21C, the protein stability index is reported as 2.29.
Work on T21D yielded a protein stability index of 3.76.
T21Q showed a protein stability index of 2.94.
Variant T21A has a protein stability index of 2.41.
Work on T21V yielded a protein stability index of 1.57.
In the case of S13E, the protein stability index is reported as 3.15.
For S13H, the protein stability index was 2.74.
With S13D the protein stability index was 3.01.
For S13Y, the protein stability index was 2.07.
With S13W the protein stability index was 2.17.
Work on S13A yielded a protein stability index of 1.96.
S13I showed a protein stability index of 1.47.
With S13V the protein stability index was 2.03.
Variant S13L has a protein stability index of 1.77.
Work on S13K yielded a protein stability index of 2.05.
S13R gave a protein stability index of 2.84.
Variant S13N has a protein stability index of 2.26.
S13G showed a protein stability index of 2.19.
In the case of S13M, the protein stability index is reported as 2.14.
With S13Q the protein stability index was 3.19.
For S13F, the protein stability index was 2.44.
For S13P, the protein stability index was 2.78.
In the case of S13T, the protein stability index is reported as 2.13.
For S13C, the protein stability index was 2.08.

Variants of: B2
Assay: as above
Details: c terminus: a fixed tail appended
Variant E3V has a protein stability index of 2.28.
With E3N the protein stability index was 5.52.
Variant E3D has a protein stability index of 3.15.
With E3T the protein stability index was 1.
With E3A the protein stability index was 2.21.
For E3P, the protein stability index was 2.66.
With K22V the protein stability index was 3.78.
With K22I the protein stability index was 2.96.
With K22T the protein stability index was 2.34.
With K22Q the protein stability index was 4.87.
In the case of K22E, the protein stability index is reported as 2.2.
With K22W the protein stability index was 3.33.
E10W gave a protein stability index of 3.59.
Work on E10H yielded a protein stability index of 2.69.
E10M gave a protein stability index of 3.02.
E10N gave a protein stability index of 1.99.
E10P showed a protein stability index of 2.75.
In the case of E10A, the protein stability index is reported as 3.65.
E10K showed a protein stability index of 2.76.
G2I showed a protein stability index of 4.78.
L7Q gave a protein stability index of 1.19.
L7E gave a protein stability index of 1.08.
For L7I, the protein stability index was 3.09.
Work on L7D yielded a protein stability index of 1.25.
For L21T, the protein stability index was 2.49.
L21H showed a protein stability index of 2.14.
In the case of L21R, the protein stability index is reported as 1.63.
Work on L21I yielded a protein stability index of 3.4.
For L21S, the protein stability index was 1.44.
Work on L21Y yielded a protein stability index of 2.33.
In the case of L21M, the protein stability index is reported as 3.88.
Work on L21N yielded a protein stability index of 1.88.
L16T gave a protein stability index of 1.75.
Variant L16Y has a protein stability index of 1.93.
L16H showed a protein stability index of 1.89.
Variant L16N has a protein stability index of 2.93.
L16P showed a protein stability index of 2.33.
L16C showed a protein stability index of 1.39.
Variant L16K has a protein stability index of 2.65.
With N19Q the protein stability index was 1.81.
Variant N19W has a protein stability index of 3.01.
Work on N19P yielded a protein stability index of 2.62.
V15L gave a protein stability index of 3.05.
V15T showed a protein stability index of 1.59.
For V15F, the protein stability index was 2.39.
In the case of V15W, the protein stability index is reported as 3.3.
With V15H the protein stability index was 2.27.
Work on K6C yielded a protein stability index of 2.54.
For K6L, the protein stability index was 3.24.
K6I showed a protein stability index of 2.34.
Variant H23V has a protein stability index of 2.8.
Work on H23R yielded a protein stability index of 1.99.
With H23C the protein stability index was 2.87.
H23N gave a protein stability index of 2.42.
Work on R11Q yielded a protein stability index of 3.1.
With R11T the protein stability index was 4.01.
With R11W the protein stability index was 2.11.
R11N gave a protein stability index of 3.3.
R11Y gave a protein stability index of 4.43.
With C24N the protein stability index was 2.94.
Work on C24F yielded a protein stability index of 3.88.
For C24E, the protein stability index was 1.81.
For S17W, the protein stability index was 3.66.
In the case of S17Q, the protein stability index is reported as 1.72.
F9E showed a protein stability index of 2.22.
F9D gave a protein stability index of 2.04.
Work on F9H yielded a protein stability index of 1.71.
Work on F14V yielded a protein stability index of 1.13.
In the case of F14D, the protein stability index is reported as 1.98.
F14R gave a protein stability index of 1.4.
With P8N the protein stability index was 2.66.
With A13S the protein stability index was 1.99.
Work on A13E yielded a protein stability index of 1.71.
A13M showed a protein stability index of 3.12.
With A13R the protein stability index was 1.85.
Variant S20T has a protein stability index of 2.98.
Work on S20E yielded a protein stability index of 2.34.
With S20K the protein stability index was 2.43.
For L12C, the protein stability index was 3.25.
L12T gave a protein stability index of 1.53.
With L12S the protein stability index was 1.92.
Variant L12E has a protein stability index of 1.96.
L12G gave a protein stability index of 2.83.
In the case of L12N, the protein stability index is reported as 2.15.
L12R gave a protein stability index of 2.35.
With F4D the protein stability index was 1.55.
Variant F4N has a protein stability index of 1.48.
Variant F4I has a protein stability index of 1.31.
Work on F4S yielded a protein stability index of 3.3.
Work on F4W yielded a protein stability index of 2.03.
F4G showed a protein stability index of 1.45.
Work on F4K yielded a protein stability index of 1.78.
Work on T1H yielded a protein stability index of 3.25.
With T1E the protein stability index was 2.1.
In the case of L5E, the protein stability index is reported as 1.72.
S18F gave a protein stability index of 2.48.
Variant S18H has a protein stability index of 2.48.
S18V showed a protein stability index of 4.13.
Variant S18C has a protein stability index of 3.11.
Work on S18K yielded a protein stability index of 3.09.
